Assay results published in publication PMC12373785, “Biochemical characterisation supports a central role for Oep80 from Arabidopsis thaliana in chloroplastic β-barrel protein assembly” (Communications Biology, 2025).

B1: Oep80^β-6×His (β-barrel domain of Arabidopsis thaliana Oep80, C-terminal 6×His) (domain or fragment, A. thaliana, UniProt Q9C5J8 398-732, looked up)
chain: SGGFSAGGGISSGITSGPLSGLIGSFAYSHRNLFGRNQKLNVSLERGQIDSIFRINYTDPWIEGDDKRTSRSIMVQNSRTPGNLVHGNQPDNSSLTIGRVTAGVEYSRPFRPKWNGTAGLIFQHAGARDEQGNPIIKDFYSSPLTASGKPHDETMLAKLESIYTGSGDQGSTMFAFNMEQGLPVLPEWLCFNRVTGRARKGIHIGPARFLFSLSGGHVVGKFSPHEAFVIGGTNSVRGYEEGAVGSGRSYVVGSGELSFPVRGPVEGVIFTDYGTDMGSGSTVPGDPAGARLKPGSGYGYGLGVRVDSPLGPLRLEYAFNDQHAGRFHFGVGLRN
notes: AtOep80 (also known as Toc75-V), A. thaliana, β barrel domain, residues 398-732; Mostly dimeric in solution by native MS; Cloned in modified Pet15b for the C-terminal 6×His; also called AtOep80 β barrel domain; Toc75-V β-barrel domain; not shown: His6, C-terminal, kept

Columns and labels:
[1] = molecular target: Oep80^β mutant with the Oep21a β-1 peptide sequence covalently attached via a flexible GS linker (A. thaliana) (UniProt Q9C5J8); experiment: native MS; protein alone, buffer-exchanged into 200 mM ammonium acetate pH 8.0, 0.5% C8E4; for the oxidised C587S/S408C/G727C mutant 0.1 mM CuSO4 pre-incubated 4 h before buffer exchange; monomer and dimer charge state series
[2] = molecular target: the molecule itself; experiment: as above
[3] = molecular target: B1; experiment: native MS; 100 µM peptide with 7 µM Oep80^β-6×His in 200 mM ammonium acetate pH 8.0, 0.5% C8E4; peptide-bound relative to unbound species, n = 4; conditions: both partners purified

Row | binding result [3] | Molecule | stoichiometry N [2] | further results
1 | – | Oep80^β mutant with the Oep21a β-1 peptide sequence covalently attached via a flexible GS linker (from UniProt Q9C5J8 398-732) | – | stoichiometry N [1]: 2
2 | – | B1 | 2 | –
3 | – | 6×His-Oep80^β (N-terminally tagged β-barrel domain of A. thaliana Oep80) (domain or fragment, UniProt Q9C5J8 398-732, looked up, AtOep80 (Toc75-V), A. thaliana, β barrel domain, residues 398-732; Cloned in Pet28a (N-terminal 6×His, removable by thrombin); also called tagged Oep80^β; 6×His-tagged version; not shown: His6, N-terminal, kept) SGGFSAGGGISSGITSGPLSGLIGSFAYSHRNLFGRNQKLNVSLERGQIDSIFRINYTDPWIEGDDKRTSRSIMVQNSRTPGNLVHGNQPDNSSLTIGRVTAGVEYSRPFRPKWNGTAGLIFQHAGARDEQGNPIIKDFYSSPLTASGKPHDETMLAKLESIYTGSGDQGSTMFAFNMEQGLPVLPEWLCFNRVTGRARKGIHIGPARFLFSLSGGHVVGKFSPHEAFVIGGTNSVRGYEEGAVGSGRSYVVGSGELSFPVRGPVEGVIFTDYGTDMGSGSTVPGDPAGARLKPGSGYGYGLGVRVDSPLGPLRLEYAFNDQHAGRFHFGVGLRN | 2 | –
4 | – | Oep80^β C587S/S408C/G727C (domain or fragment, A. thaliana, UniProt Q9C5J8 398-732, looked up, intramolecular disulfide between the introduced cysteines 408 and 727 (after Cu2+ incubation), AtOep80, A. thaliana, β barrel domain, residues 398-732, with native cysteine C587 removed and cysteines introduced in the β1 and β-1 strands) SGGFSAGGGICSGITSGPLSGLIGSFAYSHRNLFGRNQKLNVSLERGQIDSIFRINYTDPWIEGDDKRTSRSIMVQNSRTPGNLVHGNQPDNSSLTIGRVTAGVEYSRPFRPKWNGTAGLIFQHAGARDEQGNPIIKDFYSSPLTASGKPHDETMLAKLESIYTGSGDQGSTMFAFNMEQGLPVLPEWLSFNRVTGRARKGIHIGPARFLFSLSGGHVVGKFSPHEAFVIGGTNSVRGYEEGAVGSGRSYVVGSGELSFPVRGPVEGVIFTDYGTDMGSGSTVPGDPAGARLKPGSGYGYGLGVRVDSPLGPLRLEYAFNDQHAGRFHFCVGLRN | 2 | –
5 | – | untagged Oep80^β (6×His-Oep80^β after thrombin cleavage) (domain or fragment, A. thaliana, UniProt Q9C5J8 398-732, looked up, AtOep80 (Toc75-V), A. thaliana, β barrel domain, residues 398-732; also called tag-free Oep80^β; not shown: His6, N-terminal, cleaved) SGGFSAGGGISSGITSGPLSGLIGSFAYSHRNLFGRNQKLNVSLERGQIDSIFRINYTDPWIEGDDKRTSRSIMVQNSRTPGNLVHGNQPDNSSLTIGRVTAGVEYSRPFRPKWNGTAGLIFQHAGARDEQGNPIIKDFYSSPLTASGKPHDETMLAKLESIYTGSGDQGSTMFAFNMEQGLPVLPEWLCFNRVTGRARKGIHIGPARFLFSLSGGHVVGKFSPHEAFVIGGTNSVRGYEEGAVGSGRSYVVGSGELSFPVRGPVEGVIFTDYGTDMGSGSTVPGDPAGARLKPGSGYGYGLGVRVDSPLGPLRLEYAFNDQHAGRFHFGVGLRN | 2 | –
6 | binds | GKWNVRYDL (also called Oep21a β-signal peptide; Oep21a β-1 w.t; source: synthetic peptide, bought: Proteogenix (99% purity)) [Oep21a β-1 wild-type peptide] | – | –
7 | binds | GKWNVRYEL (A. thaliana Oep21a β-1, residues 159-167, penultimate residue D changed to E; also called D-to-E mutation; source: synthetic peptide, bought: Proteogenix (99% purity)) [Oep21a β-1 D-to-E peptide] | – | –
8 | binds | GKWNVRYAL (A. thaliana Oep21a β-1, residues 159-167, penultimate residue D changed to A; also called D-to-A mutant; source: synthetic peptide, bought: Proteogenix (99% purity)) [Oep21a β-1 D-to-A peptide] | – | –
